Laboratory results: patent publication US7479478B2, “Human parathyroid hormone modifications, preparation and use” (The General Hospital Corporation, priority 1998, dated 2009)
No end group written: not given here.

Target: T1, human PTH-1 receptors (Homo sapiens, UniProt Q03431)
T1 construct: expressed in transfected cells
T1 sequence (Q03431 27-593): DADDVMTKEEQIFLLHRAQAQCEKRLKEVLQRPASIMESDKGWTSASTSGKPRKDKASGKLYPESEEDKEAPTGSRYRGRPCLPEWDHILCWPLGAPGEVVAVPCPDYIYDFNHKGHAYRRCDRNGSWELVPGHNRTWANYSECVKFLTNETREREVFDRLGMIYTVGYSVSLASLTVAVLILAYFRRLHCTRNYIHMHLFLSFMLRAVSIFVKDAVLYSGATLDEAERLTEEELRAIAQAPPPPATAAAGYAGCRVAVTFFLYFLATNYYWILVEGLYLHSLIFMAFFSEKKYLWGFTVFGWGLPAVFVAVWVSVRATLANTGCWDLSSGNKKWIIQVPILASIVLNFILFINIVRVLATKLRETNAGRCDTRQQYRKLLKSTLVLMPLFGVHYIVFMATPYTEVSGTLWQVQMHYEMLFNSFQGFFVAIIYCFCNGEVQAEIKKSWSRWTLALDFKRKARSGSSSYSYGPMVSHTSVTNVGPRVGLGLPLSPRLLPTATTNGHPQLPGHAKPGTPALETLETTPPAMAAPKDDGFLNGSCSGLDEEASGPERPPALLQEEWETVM
Test: AC activation in cells that express fewer human PTH-1 receptors (LLC-PK1 subclones, SaOS-2)
Assay type: cell-based
Conditions: LLC-PKI or SaOS-2 osteosarcoma cells, 10,000-100,000 receptors per cell; data not shown
Method: Intracellular cAMP accumulation, PLC activation and PTHR binding affinity were measured as previously reported (Bringhurst, F. R., et al., Endocrinology 132(5):2090-2098 (1993); Guo, J., et al., Endocrinology 136(9):3884-3891 (1995)). Intracellular cAMP accumulation was measured in extracts of cells that were exposed to human PTH peptides in the presence of isobutylmethyxanthine (IBMX, 1 mM) at 37° C. for 15 min. After terminating the reactions by aspiration and freezing in liquid nitrogen, cell monolayers were extracted with 50 mM HCl and cAMP was measured using a radioimmunoassay kit (Dupont-New England Nuclear, Boston, Mass.).
The possibility that the [Gly^1,Arg^19]hPTH-(1-28) peptide might be useful, especially in rodent models, as a signal-selective analog to dissociate AC from PLC signaling via the PTH-1 receptor was examined further using the EW5 subclone of LLC-PK1 cells that stably expresses rat PTH-1 receptors (Guo, J., et al., Endocrinology 136(9):3884-3891 (1995)). […]

**Q.** For “GVSEIQLMHNLGKHLNSMRRVEWLRKKL [[Gly^1,Arg^19]hPTH-(1-28)]”, which “fold reduction of AC activation relative to hPTH-(1-34)” value is on record?
**A.** 10-20 fold
